Patent publication US20030148958A1 (PROCTER AND GAMBLE, published 2003)

T1: CRF2R
T1 sequence (Q13324 whole entry, species assumed, looked up): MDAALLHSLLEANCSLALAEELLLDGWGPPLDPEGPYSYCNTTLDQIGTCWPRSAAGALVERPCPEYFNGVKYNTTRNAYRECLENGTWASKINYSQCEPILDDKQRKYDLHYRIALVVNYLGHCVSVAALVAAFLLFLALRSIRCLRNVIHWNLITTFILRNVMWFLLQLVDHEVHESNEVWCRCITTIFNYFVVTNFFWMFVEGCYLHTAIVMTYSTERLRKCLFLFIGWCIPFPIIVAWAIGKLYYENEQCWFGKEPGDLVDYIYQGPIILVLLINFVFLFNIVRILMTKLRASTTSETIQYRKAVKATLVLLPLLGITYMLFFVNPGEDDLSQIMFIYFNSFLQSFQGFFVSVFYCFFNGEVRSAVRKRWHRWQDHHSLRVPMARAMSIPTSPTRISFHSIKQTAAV


How the values were obtained:
[1] = biological target: T1, CRF2R; assay: cell-based or functional assay
[2] = biological target: CRF1R; assay: cell-based or functional assay
Wherever CRF1R Emax % is given: reference of the scale not given here.
Wherever CRF2R Emax % is given: reference of the scale not given here.

Row | Binder | CRF2R EC50 [1] [nM] | CRF2R Emax % [1] [%] | CRF1R EC50 [2] [nM] | CRF1R Emax % [2] [%]
1 | ZGPPISIDLPFQLLRKMIEIEKQEKEKQQAANNRLLLATI (not fully specified; C-terminal amide) [SEQ ID NO 250] | 19.7 | 100 | 138 | 99
2 | ZGPPISIDLPTYLLRILIEIEKQEKEKQQAANNRLLLDTI (not fully specified; C-terminal amide) [SEQ ID NO 252] | 22.3 | 100 | 226 | 100
3 | ZGPPISIDVPIGLLRKMIEIEKQEKEKQQAANNRLLLDTI (not fully specified; C-terminal amide) [SEQ ID NO 254] | 100 | 36 | 708 | 6
4 | ZGPPISIDLPFQLLRKMIEIEKQEKEKQQAANNALLLDTI (C-terminal amide) [SEQ ID NO 251] | 11.8 | 100 | 926 | 80
5 | ZGPPISIDVPTYLLRKMIEIEKQEKEKQQAANNRLLLDTI (C-terminal amide) [SEQ ID NO 253] | 41.8 | 86 | 1000 | 42
6 | ZGPPISIDLPFQLLRILIEIEKQEKEKQQAANNRLLLDTI (not fully specified; C-terminal amide) [SEQ ID NO 255] | 7 | 100 | 33.3 | 84
